In article PMC3218234 one finds Kd data, which are given here for one molecule.

Experiment in all cases: SPR
Common to all, as to settings: remark: other sources report otherwise

The target of experiment [1] is human IgG1-Fc homodimer glycoform Fc-1 (bisecting-GlcNAc-Man3GlcNAc2) (human).
Experiment [2] concerns the target human IgG1-Fc homodimer glycoform Fc-5 (Man3GlcNAc2) (human).
Experiment [3] has as its target wild type recombinant human IgG1-Fc homodimer carrying fucosylated complex type N-glycans (CT-Fc) (human).

The Kd is the concentration at which binding is half-saturated.

B1: FcγRIIb, P31994 43-310 (receptor)
chain: TPAAPPKAVLKLEPQWINVLQEDSVTLTCRGTHSPESDSIQWFHNGNLIPTHTQPSYRFKANNNDSGEYTCQTGQTSLSDPVHLTVLSEWLVLQTPHLEFQEGETIVLRCHSWKDKPLVKVTFFQNGKSKKFSRSDPNFSIPQANHSHSGDYHCTGNIGYTLYSSKPVTITVQAP
modifications: not checked
In the case of B1, the Kd is 2200 nM in experiment [1], 2900 nM in experiment [2] and 2100 nM in experiment [3].
